In patent US20240083958A1, “G PROTEIN PEPTIDOMIMETICS” (VRIJE UNIVERSITEIT BRUSSEL, priority 2020, published 2024):
Where two headings read alike, the source gives them in different places. Blank lines part the entries; values can stand above or below the molecule they belong to. Bridge positions count the residues as written; N and C are the ends. Square brackets hold non-standard residues; d marks the D form. Primed or numbered codes have the meaning given here. Azk = residue with azidated side chain, clicked to Pra; Pra′ = residue with alkynyl side chain, clicked to Azk; Lys(N3) = [N-]=[N+]=NCCCC[C@H](N)C(=O)O; Cha = N[C@@H](CC1CCCCC1)C(=O)O; Pra = C#CC[C@H](N)C(=O)O

Tests used:
[1] = biological target: dopamine 1 receptor (D1R) (Homo sapiens, UniProt P21728); experiment: GPCR-radioligand binding assay (RLA) with dopamine 1 receptor (D1R), [3H]-SCH23390 as radiolabelled antagonist, A-77636 (agonist), in presence and absence of the peptidomimetic; details: Table 19; peptidomimetic at 10 μM; ratio IC50 D1R alone / IC50 D1R + peptidomimetic
Method: For the radioligand assays on D1R a similar buffer, as for β2AR, was used for the ligands, membrane extracts and peptides (+1% DMSO). The competition assay was performed with [^3H]-SCH23390 as radiolabelled antagonist, at a concentration of 2 nM. A ten-fold dilution series of the agonist, A-77636, was prepared to obtain a dose response curve, starting from 100 μM for the receptor alone and 10 μM in the presence of the peptidomimetics. After incubation, the samples were harvested into filter plates, pre-soaked with 0.5% polyethylenimine (PEI), and washed with ice cold washing buffer using the 96-well harvester. After drying in the oven during 1 h and the addition of scintillation liquid, the plates were placed in the MICROBETA® scintillation counter and incubated for 30 min in the dark before reading.
(§1) After the Microbeta scintillation counter, the experimental data was further analyzed using Graphpad Prism 6.0. After normalization of the raw data, a nonlinear regression was used to fit the data in a one-site binding model, with the total binding set as 100% and the non-specific binding between 0 and 5%. The IC50 values, obtained from the competition curves, were used to determine the shift for each peptide, which is the ratio of IC50 of the agonist test compound on the basal conformation (e.g. IC50 β2AR with no peptidomimetic) versus the active conformation (e.g. IC50 β2AR+peptidomimetic) of the receptor. For certain peptide analogues, a biphasic binding curve was observed and therefore fitted by a two-site model (nonlinear regression), resulting in two IC50 values (IC50Hi and IC50Lo) and a FractionHi, the fraction of receptors in the active state.
Peptidomimetics were screened using GPCR-radioligand binding assay (RLA) with dopamine 1 receptor (D1R) binding, using [^3H]-SCH23390 as radiolabelled antagonist, and increasing concentrations of A-77636 (agonist). The half maximal inhibitory concentration (IC50) represents the affinity of the agonist for the receptor. The selectivity is quantified by the shift. “[ ]” denotes cyclic peptides.

human β2AR [2] = biological target: T1, human β2AR (Homo sapiens, UniProt P07550, N187E); experiment: Radioligand binding assay (RLA) with human β2AR, 3H-dihydroalprenolol (DHA) as radioligand, isoproterenol (agonist) as cold competitor, in presence and absence of the peptidomimetic
T1 construct: made in house; host or cells: Sf9 insect cells (Bac-to-Bac baculovirus); membrane extracts
Method: β2AR365N constructs were expressed in Sf9 insect cells, using the Bac-to-Bac® Baculovirus Expression System. The membrane extracts were prepared from cells that expressed β2AR. Subsequently, the cell pellet was resuspended in a buffer (1 ml buffer/2×1E7 cells) containing 75 mM Tris pH 7.4, 12.5 mM MgCl2, 1 mM EDTA, Leupeptin and PMSF as protease inhibitors. Afterwards the cells were vortexed and homogenized in ice using a small volume Ultraturrax (6×10 sec). The cells were then centrifuged for 15 min at 16000 rcf, in a pre-cooled centrifuge (4° C.) and resuspended in the previous buffer containing 10% sucrose. Finally, the membranes were again homogenized in ice with the small volume Ultraturrax (3×10 sec). The protein concentration in the membrane fragments was determined using a Pierce BCA Protein Assay Kit and the protein concentration was extrapolated from the Bovine Serum Albumine standard curve.
To perform the radioligand competition binding assays, 96-well plates were used. For the assays on β2AR, the membrane extracts as well as the peptides were prepared in a binding buffer (75 mM Tris pH 7.4, 12.5 mM MgCl2, 1 mM EDTA, 0.2% BSA). The ligand (isoproterenol) and radioligand ([^3H]-dihydroalprenolol) were dissolved in ligand buffer (75 mM Tris pH 7.4, 12.5 mM MgCl2, 1 mM EDTA, 0.2% BSA and 0.1% ascorbic acid), at 1 mM and 2 nM, respectively. A ten-fold dilution series of the ligand was prepared to obtain a dose response curve. For each reaction 100 μl membrane extract, 50 μl ligand, 50 μl peptide or binding buffer containing 1% DMSO and 50 μl of radioligand was added to the V-bottom storage plate, with a total volume of 250 μl per well. Afterwards, the plates were incubated at room temperature for 2 h on a plate shaker (150 rpm). The samples were harvested into filter plates and washed with ice cold washing buffer (75 mM Tris pH 7,4) using the 96-well harvester. The plates were dried for 1 h at 50° C. and then sealed to allow the addition of 30 μl scintillation liquid to each well. Finally, the top of each plate was sealed and the plates were placed in a Wallac MICROBETA® Trilux scintillation counter and incubated for 30 min in the dark.
as §1
Synthesised peptidomimetics were evaluated using a radioligand binding assay (RLA) with a human β2AR, using ^3H-dihydroalprenolol (DHA) as the radioligand and increasing concentrations of isoproterenol (agonist) as cold competitor. In particular, the pharmacological stabilization of the receptor in the active conformation was evaluated by performing the radioligand displacement assay (RLA) in the presence and absence of the peptidomimetics. This validated assay quantifies the pharmacological stabilization of the receptor in the active conformation by comparing the affinities of an agonist for the basal versus the active GPCR conformer (Pardon et al. (2018) Angewandte Chemie International Edition 57, 5292-5295). During the assay, the binding affinity of an orthosteric agonist for the receptor, in particular isoproterenol for human β2AR, in presence and absence of the allosteric peptidomimetic was determined. […]

human β2AR [3] = biological target: T2, human β2AR (human, UniProt P07550 2-365); experiment: cell-based or functional assay
human β2AR [4] = biological target: T2, human β2AR; experiment: cell-based or functional assay; remark: listed apart in the source
human β2AR [5] = biological target: T2, human β2AR; experiment: cell-based or functional assay; remark: listed apart in the source
human β2AR [6] = biological target: T2, human β2AR; experiment: cell-based or functional assay; remark: listed apart in the source
human β2AR [7] = biological target: T2, human β2AR; experiment: cell-based or functional assay; remark: listed apart in the source
human β2AR [8] = biological target: T2, human β2AR; experiment: cell-based or functional assay; remark: listed apart in the source
[9] = biological target: dopamine 1 receptor (D1R) (UniProt P21728 1-446, limits assumed); experiment: cell-based or functional assay
human β2AR [10] = biological target: T2, human β2AR; experiment: cell-based or functional assay; remark: listed apart in the source
human β2AR [11] = biological target: T2, human β2AR; experiment: cell-based or functional assay; remark: listed apart in the source
human β2AR [12] = biological target: T2, human β2AR; experiment: cell-based or functional assay; remark: listed apart in the source
human β2AR [13] = biological target: T2, human β2AR; experiment: cell-based or functional assay; remark: listed apart in the source

dopamine 1 receptor (D1R) (Homo sapiens, UniProt P21728), sequence (P21728 whole entry): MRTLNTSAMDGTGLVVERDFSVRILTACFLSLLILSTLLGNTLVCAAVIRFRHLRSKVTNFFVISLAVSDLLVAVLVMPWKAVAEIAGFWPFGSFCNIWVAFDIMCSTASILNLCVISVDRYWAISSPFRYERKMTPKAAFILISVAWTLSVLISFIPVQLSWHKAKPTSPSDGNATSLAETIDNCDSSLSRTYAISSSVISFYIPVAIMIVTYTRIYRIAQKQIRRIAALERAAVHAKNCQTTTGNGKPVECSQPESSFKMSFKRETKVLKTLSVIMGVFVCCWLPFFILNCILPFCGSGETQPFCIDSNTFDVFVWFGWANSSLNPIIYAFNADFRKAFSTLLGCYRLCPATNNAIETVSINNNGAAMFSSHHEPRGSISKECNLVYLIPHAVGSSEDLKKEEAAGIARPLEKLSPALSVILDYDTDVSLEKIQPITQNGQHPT
dopamine 1 receptor (D1R) (UniProt P21728 1-446, limits assumed), sequence (P21728 whole entry): as above

Molecule: Ac-KKKFN[PraCRDAzk]IQRMHLRQYEChaL-OH (Ac-KKKFN[Pra′]CRD[Azk]IQRMHLRQYE[Cha]L-OH; triazole 6-10) [compound 51]
Fraction HI (%) (human β2AR [2]; Table 10, peptidomimetic at 1 μM (printed 511 μM), fraction of receptors in the active state): 54%
Fraction HI (%) (human β2AR [2]; Table 10, peptidomimetic at 10 μM, fraction of receptors in the active state): 76%
Shift (human β2AR [2]; Table 10, peptidomimetic at 10 μM, ratio IC50 β2AR alone / + peptidomimetic): 175
Fraction HI (%) (human β2AR [2]; Table 10, peptidomimetic at 50 μM, fraction of receptors in the active state): 79%
Shift (human β2AR [2]; Table 10, peptidomimetic at 50 μM, ratio IC50 β2AR alone / + peptidomimetic): 170
Fraction HI (%) (human β2AR [2]; Table 10, peptidomimetic at 100 μM, fraction of receptors in the active (high affinity) state, two-site model): 77%
Shift (human β2AR [2]; Table 10, peptidomimetic at 100 μM, ratio IC50 β2AR alone / + peptidomimetic): 345
Shift (human β2AR [2]; Table 10, ratio IC50 β2AR alone / + peptidomimetic): 21
Shift [1]: 52

Molecule: Ac-FNDCRDIIQRMHLRQYEChaL-OH (FNDCRDIIQRMHLRQYEXL; HELM PEPTIDE1{[ac].F.N.D.C.R.D.I.I.Q.R.M.H.L.R.Q.Y.E.[Cha].L}$$$$V2.0; SMILES CC[C@H](C)[C@H](NC(=O)[C@H](CC(=O)O)NC(=O)[C@H](CCCNC(=N)N)NC(=O)[C@H](CS)NC(=O)[C@H](CC(=O)O)NC(=O)[C@H](CC(N)=O)NC(=O)[C@H](Cc1ccccc1)NC(C)=O)C(=O)N[C@H](C(=O)N[C@@H](CCC(N)=O)C(=O)N[C@@H](CCCNC(=N)N)C(=O)N[C@@H](CCSC)C(=O)N[C@@H](Cc1c[nH]cn1)C(=O)N[C@@H](CC(C)C)C(=O)N[C@@H](CCCNC(=N)N)C(=O)N[C@@H](CCC(N)=O)C(=O)N[C@@H](Cc1ccc(O)cc1)C(=O)N[C@@H](CCC(=O)O)C(=O)N[C@@H](CC1CCCCC1)C(=O)N[C@@H](CC(C)C)C(=O)O)[C@@H](C)CC) [compound 63]
Shift [1]: 24

Molecule: FNDCRDIIQRMHLRQYELL [compound 2, Ac-FNDCRDIIQRMHLRQYELL-OH]
Shift (human β2AR [2]; Table 1, ratio IC50 β2AR alone / IC50 β2AR + peptidomimetic): 6
Shift [1]: 2

Molecule: Ac-FN[Pra′]CRD[Azk]IQRMHLRQYELL-OH (triazole 3-7) [compound 12]
Shift (averaged) (human β2AR [4]): 27
IC50 (nM) of isoproterenol, [3H]-DHA RLA, peptidomimetic present (human β2AR [11]): 47.3 nM
Shift (human β2AR [11]): 20
IC50 (nM) of isoproterenol, [3H]-DHA RLA, peptidomimetic present (human β2AR [12]): 38.9 nM
IC50 (nM) of isoproterenol, [3H]-DHA RLA, peptidomimetic present (human β2AR [13]): 37.3 nM
Shift (human β2AR [13]): 31

Second part, the molecule after the results:

Shift [1]: 32
Molecule: Ac-KKKFN[PraCRDAzk]IQRMHLRQYELL-OH (Ac-KKKFN[Pra]CRD[Lys(N3)]IQRMHLRQYELL-OH; triazole 6-10) [compound 42]

IC50 (nM) of isoproterenol, [3H]-DHA RLA, Nb80 present (human β2AR [3]): 9.7 nM
Shift (human β2AR [3]): 146
Molecule: Nb80 (VHH)

Shift (averaged) (human β2AR [4]): 10
IC50 (nM) of isoproterenol, [3H]-DHA RLA, peptidomimetic present (human β2AR [5]): 118 nM
IC50 (nM) of isoproterenol, [3H]-DHA RLA, peptidomimetic present (human β2AR [6]): 77.1 nM
Shift (human β2AR [6]): 13
IC50 (nM) of isoproterenol, [3H]-DHA RLA, peptidomimetic present (human β2AR [7]): 97.6 nM
Shift (human β2AR [7]): 9
Fraction HI (%) (human β2AR [8]): 21%
IC50 (nM) of isoproterenol, [3H]-DHA RLA, peptidomimetic present (human β2AR [8]): 124 nM
Shift (human β2AR [8]): 13
IC50 (nM) of A-77636, [3H]-SCH23390 RLA, compound 2 at 10 µM [9]: 5.8 nM
IC50 (nM) of isoproterenol, [3H]-DHA RLA, peptidomimetic present (human β2AR [10]): 79.4 nM
Shift (human β2AR [10]): 10
Molecule: Ac-FNDCRDIIQRMHLRQYELL-OH [compound 2]

IC50 (nM) of isoproterenol, [3H]-DHA RLA, peptidomimetic present (human β2AR [5]): 614 nM
Molecule: Ac-RDIIQRMHLRQYELL-OH [compound 16]
